Experiment: label from the status in PepcDB records
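Further: failed if final PepcDB status was selected cloned or expressed and not failed if soluble or beyond.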

| Sequence | protein production |
| --- | --- |
| MNRHLIHRRDILDTLVADLQAQQPDHIAVTGDLVNIALVNEFAPARQWLESVGPADRVSLVPGNHDAYVRSTAHRFAETFPDYISGDDATPGFPYLRRREAIAIIGVSSAVPTAPLRATGWLGAPQRAALEALLQSLAGERVFKVLLIHHPLQSRSRHKRLTDAADLIALLQRHPVDLVLHGHDHVHATVRIDTPFGAIPVVGVPSASAMNDRHRPSAAYNLFKISEGNDGWRCLEHHHHHH | failed |
| MNRICELLGIEHPIISGGMVWCSGWKLASAVSNCGGLGLIGAGSMHPDNLEHHIRSCKAATDKPFGVNVPLLYPEMDKIMEIIMREHVPVVVTSAGSPKVWTAKLKAAGSKVIHV | failed |
| MNRILQQVANQYWFRVSLTVICCLATICLGVHQSYVWFSVSACLLILSIIWQVRLYRLHIKQVLFMIDALENNDSAFRFPEESGTPESKQINRALNRVGHILYNVKAETAQQEKYYKLILDFVSTGLLVLNDNGAVYQKNKEALRLLGLNVFTHVRQLSKVDATLMEKIESCCSGDKLQVVFHNERGTVNLSIRVSEINVHKEHLRILALNDINIELDEKEIDSWIRLTRVLTHEIMNSVTPITSLSDTLLSMVEDKDEEISHGLQTISATGKGLLAFVESYRKFTRIPTPEPSLFYLKAFIERMVELARHQNPCDHITFHTKIDPADLILHADENLISQVVINLLKNAIQAIGDQPDGQIDIQVYCNETEEVLIEIKNNGPVIPPEIVEHIFIPFFTTKEGGSGIGLSISRQIMRLSGGSLTLLPDNKETKFILKFK | failed |
| MNRINYIRQAEKKYHDLCYEQYKLFETGSWLYKPVKTVMDLMDHFEGQNNLQVLDLGSGVGRNSIPIAQQIQNTSGTVTCVDLLDSALTKLKTYTKEHGVFEVIKTEQAAIENYYIVPNTYDYIVAVSSLEHVQSEEDLTNVLHSIKEGTKTGGINCLIINSNIQEIDLHTKEELDALIEINLPTEDMIHLLKSIYKEWKEIKVEIKELVYDIVRDEKQIQLKTNAITFVVQK | failed |
| MNRKILVTGATGSNGTEIVKRLAAKNVQVRAMVRDFDRAKKIAFPNVEVVEGNFDRPETLLEALAEVDRAFLLTNSTERAEAQQLAFVDAARQNGVKHIVKLSQFAADAHSPVRFLRYHAAVEAAIQGSGMTYTFLRPNLFMQGLLNFQSTITSQNAFYAAISDAKVSVVDVRDIADVAVVALTETEHEGKIYNLTGPQALTHAEMAEQLSAALNRQIAFVDIPSEVMRDQLLNIGMPPWQADGVIEDYAHYRRNEAAAVSSGIQDAIGKEPRSFNTFACDYAAMFG | failed |
| MNRKLRRANLKASEPTPHETGNVINYMRQGRYAEAAHLAKGLTERFPDHGFGWKILGICTLLLGQNGDALPLFLKAAGLLPDDPDIHCNIGIIYYELNQLNEAEYYCRYALKLRPNDAIAHNNLGNILSSLGRLDEAEACFRRAIENNPDLAQAHYNLGSALQALGRLEEAESCYRRATAIRPTYEEAYASLGNVLKEMGRLDEALESWKLSLAHQEDWTNALRRLTNPLLMDGDLTRGPEYPAADAAEGQPRQLSSHPAAASVESLDRKYRVPSHGHDGSAEAGAVAGRDENAPRPLRIVLVYPPLWQIPSADLAVPEGMPFGPPATAGGPVAISRELKTITQGVLSIAAQAKKAGHDVRVYNLFNAPWADIVALIAGTGADVYGVSAYNSNRRGMGALCALIRQYHPHAHITVGGPFATTLPLETLRYYRAIDTVVVGEGEETFMELLDHIRSHRPAVGIPGTAWRNGDEVALGPVRPRIGDLDTLASHFDYYSSNIVMTSRGCPSKCSFCGNPVLWGRKIRFYSTDYCIDMFRKALARLPVPYLMIADDTFTANQQRTLNMCDAIIGNKLDFLWSCSTRVDAMEDKVLHRMRRAGCQEIMIGVESGSPEILERIHKGITPEMVLTVTRAAKKYGMLVHYYMMVINRGETPDTLQASIDLIKAGRPNSYDLTPLMFLPGTEDYGHLCEQQGLTSDIFFRNDFMDISVERKRKKDLDTVMQHLYCSIGTIGGYEYTVAEREAVVEHLPDVPTVHVELANAYLRAGQLDKATAALTRAEELGFPIGNIILNQHACIALARNQIDTSLDFLERACRSFPDVTVKGNYDKLAAWIDSRTSGQVKPCLLCDSVRAQDFVFRADETAP | failed |
| MNRLKNMSKYSDAKELASLTLGKKTEYANQYDPSLLQPVPRSLNRNDLHLSATLPFQGCDIWTLYELSWLNQKGLPQVAIGEVSIPATSANLIESKSFKLYLNSYNQTRFASWDEVQTRLVHDLSACAGETVTVNVKSLNEYTAEPIVTMQGECIDDQDIEIANYEFDDALLQGAAQGEEVSEVLHSHLLKSNCLITNQPDWGSVEIAYHGAKMNREALLRYLVSFREHNEFHEQCVERIFTDIMRYCQPQSLTVYARYTRRGGLDINPFRSSHQSAPNHNQRMARQ | not failed |
| MNRLQGMELFVEVARTLSFGRAAENLAIPKSTLSRQVAELERSVGLRLLSRTTRRVELTEAGQLYFERCQRIVAEARIAHEELQNLVETPSGPLRVNMPADFGTDFLSEAFTEFSRRYPEVTFYLDLASPEHAERVFQTCDVSIEIGDLPDSTHIARLLGVLPAHLYASPDYLARHGEPQHPDDLPRHECIQFRAGTGRVTRWPLNSGERHVEITPGNRFSVNSVSMVRNLATLGAGIAILAPMGNVREDIESGRLKRILPDWLAGPFPVYAVTDTRMLPAKTRIFVEFLMERLSNKTLAGQNNPAFLNLR | failed |
| MNRRKISALLLSCTLAMNISSFNEIVLADENKGEEVQKESHNESNCIAGDYHEVNNGNAKNTENTPVINGIKVNKQLIDINYSQGVTINPKYIVIHDTDNRQAGANAMANRNYFANHPNAKASAHYIIDEGNIIQALEDTWKGWHVGDGNNPNINNSTTIAIELCVNKENDFDKTLENGIELTKYLVNKYNIPAENVVMHRDASGKTCSRMMIEDRPSLWPYFKERISGGDGSLEDDGLKPKMQGKVTNASVLNVRESPSTSGRIVHKLNRNQVVGIYEELNGWYKIDYIDGVKKKYGYVSKDYISIINENPEDEETNGDIEIEKPSVSVNKQGIVKVNSALNMRSGPGSNYGVIGTLRNNDEVEIIKEVDGWYEIKFNGKSGYVSSQYIKVLDNESNEEKPVEPEKPSVSLNKQGVVKVNSALNMRSGPGSNYGVIGTLRNNDEVEIIKEVDGWYEIKFNGKSGYVSSQYIKVLDNESNEEKPVEPEKPSVSLNKQGVVKVNSALNMRSGPGSNYGVIGTLRNNDKVEIIKEVDGWYEIRFNGKVGYASKSYITIVNEGSNNGTDSVIKEGTVYGVSTNLNVRTGPGTSYQVIGYLLSGDKVKILGDENGWYKVQFNASTGTKNGYVSKDYIKV | failed |
| MNRRVVIVTAVHGPSAPFLPEAYASLCAQELPDGWEWRWVIQEDGRTQDVRPHVPDDPRVVFHQGRHGRQGGPGVARTMALAHADGAYVKVLDADDRLTPGALARDLAALEADPSIGWATSRVLDLLPDGSTAGFPGDPAHGPIERGEVLDFWRANGFRAQVHPATLLVRRDLLLAVGGWMALPASEDTGLLLALNCVSRGWFTEDVGLLYRKWEGQETGQASHVDPAERDARMTVVEARARALASFGWRLPEGTGDFDHLEHHHHHH | failed |
| MNRSFNIIISFKFIFWNMKSKPMNVIFDVLNEIHGFFGALWAGAALLNFLIKPQDKRQFERIGRFFLITSIITIITGIIIFAYIYLAPYQGNLFLVAAILRSSLDIRIRAFLNLIGGAFGLLAFGAGIVISNRIRLMVRVKEGDVTILELRNSVSNLSKISLVFLLISLAMMILAGSIAQVIT | failed |
| MNRSRDKVRCALNHQNAGSIPVDFGSTAVTGIHCRIVEALRNYYGLAPRPVKIVDAFQMLGEIDAELAEKIGVDCIGIGGPKDIFDLDTTRMHEQTTPWGQRVLVPEAMDLTPDMRGDVYVYAGGDQNYPPSAVMPKGCYFINAIERQQPIEEDRLDPEDNVEEFGLLTENDLAYYCAEADKAYQTGRAVVASFGGTALGDVAFVPGMGLKQPKGIRSVVEWYMSTAMRQDYLHQVFEKEIDIAIANYEKLWAALGDKIDVVLTCGTDFGSQESQFCSIDTFRELWLPHYRRMNDWIHQHTTWKIFKHSCGAIIPILPGLIEAGFDIINPVQINAKDMDSRRLKEEFGSQLTFWGGGVDTQKILPFGTPDEIRRHVMGQCEILGRDGGFVFNAVHNVQANVPVDNVVAMFDALKDISLEHHHHHH | failed |
| MNRVKDKRLWLSIVGITGLGLLSGLFSVNAREYYQALRLPSFAPPGWLFGPVWLVLYIFMGITFYFILVHPNKQQKKRMITLFILQFIANFFWTFFFFSLQNNLLSVIDISLLWLLLIIQQWDYLRYKLITRGWLMIPYILWVTFAAALNYSILFLN | not failed |
| MNSCVLFAEVIQGPELRYTQENQMAVATMVVQFASLRSEEPPMSLRTVAWGNLGQKMHAECKVGDRLILEGRLKMDTIDRPEGFKEKRAELVVSRFYTVDGNIVDHPAQPAATVPVTPRVAPPPPEFEDISLDEVPFLEHHHHHH | not failed |
| MNSEKDVMADASAMRTSMHALAVYGATPLFVLLWSGGAIFSRVGLSHASPFAFLTLRFVIALPLLAAIGVARRCMLPAPGTRVRVAVTGALMIGGYSISYLLALDFGMTPGVLATVLGVQPILTLLWMERRVSVARLAGLTLALAGLVTIVADSLMAARFSMAGWGAALAALACMTVGAIGQKGIRQAAVEILPLQYTVALAMCLLCVPFQPFRFEHVPGFFFPLLWMGIVISVVATLLFYRLIQAGNLVNVTSLFYLVPPVTVLLDFVALSNRPAPLALVGMIAIPVGLALAFRAGR | failed |
| MNSELFQKLAKAQTDEERSWIVTESLLATLSPELAAAAWAAVVPHWFNAEILAALRPELQAQSSQLYTKLQALSFVEEFADRGHDVHDLTRNLMLKHLWQEHQDEFITLSQRAAEYFGRNNQQPETQIEWLYHLIVVDREWKGSEFWNLAQNWDNSFRVAELESLIAALLEQIAAERVETLAKAEVYYWAGKAKFRVYKAKEALERYEEALAFYRNIGVSEAPPVEARLGEANTLQAIGDVLQFLDRRTEALERYEEALAFYRDIGDRLGEANTLRAIGDVLQFLDRRTEALERYEEALAFYRDIGARLGEANTLQAIGDVLQFLKRSTEALERYEEALAFYRDIGDRLGEANTLRAIGDVLQFLDRRTEALERYEEALAFYRDIGARLGEANTLKAIGDVLQFLKRSTEALERYEEALAFYRDIGARLGEANTLRAIGDVLQFLDRRTEALERYEEALAFYRDIGDRLGEANTLRAIGDVLQFLKRSTEALERYEEALAFYRDIGDRLGEANTLRAIGDVLQFLKRSTEALERYEEALAFYRDIGDRLGEANTLQAIGILQDDLTVGLEYCQAALELYRQIGTKYSQSRNLIYFTSTILLKLERQTEAIDALNRAIELAKEIPYQYFVEDALAKLKKIQSSDSNI | failed |
| MNSFPAQNLMLSATNANKDSGLRTSNAHWLHSCIAVPKTTGIDLSQEPPAEGVMVPQSHLFPPPIRDSRNDTETVKQKSVNQSPSKALKPKPQRKKRSVSNKSKKTPSIPETKREKKNLDINIDISSFDTSGVPPPVCSCTGVSRVCYKWGMGGWQSSCCTISISTYPLPMSTTRPGARLAGRKMSNGAYVKLLARLADEGYDLSHPLDLKNHWARHGTNKFVTIK | failed |
| MNSFYSQEELKKIGFLSVGKNVLISKKASIYNPGVISVGNNVRIDDFCILSGKVTIGSYSHIAAYTALYGGEVGIEMYDFANISSRTIVYAAIDDFSGNALMGPTIPNQYKNVKTGKVILKKHVIIGAHSIIFPNVVIGEGVAVGAMSMVKESLDDWYIYVGVPVRKIKALEHHHHHH | not failed |
| MNSHMLVSSEIDIGLNKSNIERPPGSKKRTKHLPCEVPLAESADRILEPQDYLNFTRFSLGFVETETYDNPRFGGHQTLSERERSYSAVNQTIHCGFVKGTGFDLSEKDRAYMKNCVVSVSSCIFGSSDFLRRPATKKISEFSKRNVCFVMFVDEQTLSKLASEGHVPDKQGFVGLWKTVVVSNLPYNDMRKTGKVPKFLSHRLFPSSRYSIWLDSKMRLTTDPMLIIDFFLWRTKSEFAISNHYDRHCVWDEVLQNKRLNKYNHSAIDEQFMFYRSDGLKKFDPSDPNSPLPSYVPEGSFIVRAHTPMSNLFTCLWFNEVDRFTSRDQLSFAYTYLKLQRLNSDRPLRLNMFKDCERRALTKLFHHRVDSSPPSPPT | not failed |

From a protein production outcome set (Wang et al. 2014)
